# Laboratory results published in US20190248902A1 (published 2019).
# Numbering of substitutions follows the chain as printed.
# T1: recombinant, soluble human ASGR-1 (human, UniProt P07306 62-291)
# T1 construct: biotinylated in the binning assay; also called soluble huASGR-1; Soluble ASGR-1 (Amgen)
# T1 sequence: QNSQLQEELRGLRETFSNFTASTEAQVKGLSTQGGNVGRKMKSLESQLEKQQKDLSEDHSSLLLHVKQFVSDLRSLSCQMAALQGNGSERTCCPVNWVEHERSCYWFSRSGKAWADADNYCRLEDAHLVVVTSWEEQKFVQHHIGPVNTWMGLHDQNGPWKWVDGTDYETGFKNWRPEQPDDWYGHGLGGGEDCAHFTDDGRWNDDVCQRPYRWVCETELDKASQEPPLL
# B1: 9G9 (antibody, V domains shown)
# VH: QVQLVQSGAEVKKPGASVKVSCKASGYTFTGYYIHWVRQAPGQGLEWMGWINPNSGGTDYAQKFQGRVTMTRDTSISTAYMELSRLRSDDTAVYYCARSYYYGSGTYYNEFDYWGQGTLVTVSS
# VL: QSVLTQPPSASGTPGQRVNMSCSGTNSNIGSYTVNWYQQLPGTAPKLLIYINNQRPSGVPDRFSGSKSGTSASLAISGLQSEDEADYYCAAWDDSLNGHVVFGGRTKLTVL
# notes: hybridoma mAb
# B2: 6D9 (antibody, V domains shown)
# VH: EVQLVESGGGLVKPGGSLRLSCAASGFTFSNAWMNWVRLAPGKGLEWVGRIKSKTDGGTTDYAAPVKGRFTISRDDSENTLYLQMNSLKTEDTAVYYCSTDTGPIAARLAYYYYYAMDVWGQGTTVTVSS
# VL: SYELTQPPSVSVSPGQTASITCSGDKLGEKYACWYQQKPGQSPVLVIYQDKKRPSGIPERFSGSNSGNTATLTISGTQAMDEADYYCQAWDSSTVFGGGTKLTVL
# notes: hybridoma mAb
# B3: 68G6 (antibody, V domains shown)
# VH: QVQLVQFGGEVKKPGSSVKVSCKASGYTFTGYYMHWVRQAPGQGLEWMGSIYRNSGGTNYAQKFQGRVTMTRDKSISTAYMEKSRIRSDDTAVYYCARAFYYGSGTYYNEFDYWGQGTLVTVSS
# VL: SYEVTQPPSVSVSPGQTASITCSGDKLGDKYTYWYQQKAGQSPFLVIYQDRKRPSGIPDRFSGSNSGNTATLTISGTQAMDAADFYCQAWDNSTAVFGGGTKLTVL
# notes: hybridoma mAb
# B4: 60E8 (antibody, V domains shown)
# VH: QVQLQESGPGLVRPSATLSLTCTVSGGSISRSSYYWGWIRQPPGKGLEWIGSIYYSGSASYNPSLKSRVTISVDTSENQFSLRLSSVTAADTAVYYCARLDSGWSFDYWGQGTLVTVSS
# VL: DIQMTQSPSSLSASVGDRVTFTCRASQGIRNDLGWFQQKPGKAPKRLIYAASSLQSGVPSRFSGSGSGTEFTLTISSLQPEDFATYYCLQHSSYPLTFGGGTKVEIK
# notes: hybridoma mAb
# B5: 7F4 (antibody, V domains shown)
# VH: QLQLQESGPGLVKPSETLSLTCTVSGGSISRSSYYWGWIRQPPGKGLEWIGNIYYSGATYYNPSLKSRVTISVDTSTNQFSLKLSSVTAADTAVYYCARHSGSWSLDYWGQGTLVTVSS
# VL: B4 VL with F21I, A25T, F36Y, S53N, S93A
# notes: hybridoma mAb
# B6: 64B12 (antibody, V domains shown)
# VH: B4 VH with V2L, R13K, A16E, G27V, A59T, E77K, R83K
# VL: DIQMTQSPSSLSASVGDRVTITCRASQDISNYLNWYQQKPGTAPNLLISDASILETGVPSTFSGSGSGTDFTFTISSLQPEDIATYYCQQSDNLPCSFGQGTKVEIK
# notes: hybridoma mAb
# B7: 6G6 (antibody, V domains shown)
# VH: QVQLVQSGAEVRKPGASVKVSCKASGYTFTNYDINWVRQATGQGPEWMGWMHPNSGNTGYAKKFQGRVTMTRNTSISAAYMVLSSLRSEDTAVYYCALSSGWYYFDYWGQGTLVTVSS
# VL: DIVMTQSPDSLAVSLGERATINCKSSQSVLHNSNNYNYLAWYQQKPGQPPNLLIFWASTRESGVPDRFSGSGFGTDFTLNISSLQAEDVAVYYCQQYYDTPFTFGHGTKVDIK
# notes: hybridoma mAb
# B8: 65F10 (antibody, V domains shown)
# VH: QVQLVQSGAEVKKPGASVKVSCKASGYTFTGYHMHWVRQAPGQGLEWMGWINPNNGGTSYAQKFQDRVNMTRDTSISTAYMELSRLRSDDTAVYYCARDSRSSWDYWGQGTLVTVSS
# VL: DIQMTQSPSSVSASVGDRVTITCRGGQGISTWLAWYQQKPGKAPKLLIYAASILQSGVPSRFRGRGSGTDFTLTISSLQPEDFATYYCQQGNIFPFTFGRGTKVDIK
# notes: hybridoma mAb
# B9: 63A10 (antibody, V domains shown)
# VH: EVQLVESGGGLVQPGGSLRLSCAASGFTFSSYSMNWVRQAPGKGLEWVSYISSSTSTIYYAASVKGRFTISRDNAKNSLYLQMNSLRDEDTAVYYCARDHRYYDSSGYYSDAFDIWGQGTMVTVSS
# VL: NFMLTQPHSVSESPGKTVTISCTRSNGSIVSNYVQWYQQRPGSSPTTVIYEDKRRPSGVPDRFSGSIDSSSNSASLTISGLKTEDEADYYCQSYDSINVVFGGGTKLTVL
# notes: hybridoma mAb
# B10: 63G7 (antibody, V domains shown)
# VH: B9 VH
# VL: B9 VL with V48M, K53S, Y90S, S96G
# notes: hybridoma mAb
# B11: 7E11 (antibody, V domains shown)
# VH: QVQLVESGGGVVQPGRSLRLSCAASGFTFSSFGMHWVRQAPGKGLEWVAIIWHDGSNKYYADSVKGRFTISRDNSNNTLYLQMSSLRAEDTAVYYCARDLSMGGMDVWGQGTTVTVSS
# VL: DIQMTQSPSSLSASVGDRVTIACRASQNIISYLNWYQQKPGKAPKFLIYTASSLQSGVPSRFSGSGSGTDFTLTISSLQPEDFAIYYCQQTYSTPLTFGGGTKVEIK
# notes: hybridoma mAb
# B12: 59F2 (antibody, V domains shown)
# VH: EVQLVESGGGLVQPGGSLRLSCGASGFTFSSYSMNWVRQAPGKGLEWVSYISGSSNIIYYTDSVKGRFTISRDNAKNSLYLQMNSLRDEDTAVYYCARADTPMVLYFYGMDVWGQGTTVTVSS
# VL: SYELTQPPSVSVSPGQTASITCSGDKLGDKYASWYQQRPGQSPVLVIYQDNKRPSGIPERFSGSNSGNTATLTISGTQAMDEADYYCQAWDNNTVVFGGGTKLTVL
# notes: hybridoma mAb
# B13: 60D2 (antibody, V domains shown)
# VH: B12 VH with G53E, K76M
# VL: B12 VL with D25N, A79T
# notes: hybridoma mAb
# B14: 147D10 (antibody, V domains shown)
# VH: EVQLLESGGGLVQPGGSLRLSCAASGFTFSSYAMSWVRQAPGKGLEWVSAISGRGGNTFYADSVKGRFTISRDNSKNTLYLQMNSLRAEDTAVYYCAKKDYDYVWGSPYFDYWGQGTLVTVSS
# VL: DIQMTQSPASVSASVGDRVTITCRASQNISNWLTWYQQKPGKAPKLLIYAASSLQSGVPSRFSGSGSGTDFTLSISSLQPEDFATYYCQQTDSFPFTFGPGTKVDVK
# notes: hybridoma mAb
# B15: 149F8 (antibody, V domains shown)
# VH: B14 VH
# VL: B14 VL with N28G, T34A, S65N, G66E, T85I
# notes: hybridoma mAb
# B16: 149D11 (antibody, V domains shown)
# VH: B14 VH with L81R
# VL: B14 VL
# notes: hybridoma mAb
# Molecular target: T1, recombinant, soluble human ASGR-1
# Experiment: Octet BLI dissociation, pH 5.6 plus calcium
# Experimental: (§1) The relative dissociation of ASGR-1 from antibodies was measured using a label-free assay on an OctetHTX instrument (Fortebio). Antibody samples were captured on anti-HuFc kinetic biosensors (ForteBio cat #18-5064) at 5 ug/mL in assay buffer (10 mM Tris, 0.1% Triton, 150 mM NaCl, 1 mg/mL BSA, 1 mM CaCl2, pH7.4) for three minutes. A one minute baseline stabilization step was performed in assay buffer. Soluble ASGR-1 (Amgen) at 6 ug/ml in assay buffer was added and association to the antibodies was monitored for two minutes. Subsequent dissociation of ASGR-1 from the antibodies was performed by incubating the ASGR-1-mAb complexes for 10 minutes under each of the following conditions:
# (§2) The binding signal at the end of the 2 minute association phase for each dissociation experiment was set to 100% and used to represent the maximal level of ASGR-1 binding. After 1 minute of dissociation, the percentage of ASGR-1 remaining bound was calculated. The lower the percent remaining at a given time point indicates increased levels of dissociation in response to the test conditions (ie. different pH and/or calcium concentrations). The change in the percentage of ASGR-1 remaining bound in response to each test condition relative to the percent remaining in the control conditions (ie. pH 7.4+calcium) was determined. Cut-offs for an antibody to be categorized as being sensitive to a particular condition were set to >10% (ie. if >10% of the ASGR-1 dissociates from the antibody under a particular test condition compared to control condition, it was deemed sensitive to that condition). The analysis was done using the 1 minute dissociation time point (except for mAb 149A1 which was binned based on the 4 minute dissociation time point). Using this analysis, the ASGR-1-binding, receptor-ligand blocking antibodies were separated into groups according to their dissociation profiles in response to pH and calcium (Table 7.3). Antibodies belonging to each category were observed.
row,% Change Compared to pH 7.4 + Calcium,Binder
1,38%,B1
2,25%,B2
3,39%,B3
4,11%,B4
5,6%,B5
6,6%,B6
7,-3%,B7
8,18%,B8
9,3%,B9
10,15%,B10
11,5%,B11
12,52%,B12
13,42%,B13
14,4%,B14
15,-8%,B15
16,3%,B16

# Molecular target: T1, recombinant, soluble human ASGR-1
# Experiment: Octet BLI dissociation, pH 7.4 minus calcium
# Experimental: as §1, §2
row,% Change Compared to pH 7.4 + Calcium,Binder
1,25%,B1
2,14%,B2
3,22%,B3
4,3%,B4
5,4%,B5
6,6%,B6
7,1%,B7
8,25%,B8
9,8%,B9
10,20%,B10
11,9%,B11
12,48%,B12
13,20%,B13
14,13%,B14
15,1%,B15
16,11%,B16

# Molecular target: T1, recombinant, soluble human ASGR-1
# Experiment: Octet BLI dissociation, pH 5.6 minus calcium
# Experimental: as §1, §2
row,% Change Compared to pH 7.4 + Calcium,Binder
1,55%,B1
2,42%,B2
3,47%,B3
4,18%,B4
5,9%,B5
6,7%,B6
7,0%,B7
8,37%,B8
9,47%,B9
10,59%,B10
11,14%,B11
12,74%,B12
13,49%,B13
14,11%,B14
15,-1%,B15
16,11%,B16
